Measured values reported in the supplement of paper PMC12042874.
± gives the uncertainty stated by the source.

Assay: amyloid nucleation score (Sup35N fusion, yeast selection) (log enrichment); library NNK1; higher = more nucleation; inactive = no reads after selection
Summary of the method: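 Peptides of 20 random codons fused to Sup35N were expressed in psi-negative yeast, induced 24 hours with 100 μM copper sulfate, then grown 7 days at 30°C on medium lacking adenine and uracil. Input and output plasmid inserts were Illumina-sequenced. Nucleation score is the DiMSum log enrichment of output over input reads, centred on the mode score of non-aggregating sequences, excluding sequences with under 100 input reads. Random libraries had three technical output replicates.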
In the case of PVLSTYFHAKLQNTWMPGNR, the amyloid nucleation score is reported as -0.941 ± 0.77. With PWKWF the amyloid nucleation score was -0.224 ± 0.43. PWSALTASGTKISSSKSRLG gave an amyloid nucleation score of -0.331 ± 0.93. PYAAGENWWMCLQRVPVTIV gave an amyloid nucleation score of 0.027 ± 0.67. PYCFYPRCC showed an amyloid nucleation score of 0.015 ± 0.85. For PYFLGGRA, the amyloid nucleation score was -0.809 ± 2.1. PYKTWRYSSRIFYWAALPMV gave an amyloid nucleation score of -0.842 ± 1.7. Substance PYMVSGSWPKFRT has an amyloid nucleation score of 0.041 ± 0.58. For PYSWVEKASY, the amyloid nucleation score was -0.322 ± 0.78. With PYWVYEHSTC the amyloid nucleation score was -0.726 ± 0.63. For QAKGLALLCV, the amyloid nucleation score was -2.17 ± 2.7. Substance QCANAVNHRTLGLMLFKMVL has an amyloid nucleation score of 0.19 ± 0.5. With QCHVVDFRRKYLELRSSLRY the amyloid nucleation score was “inactive”. With QCKRFCCIWVCNADFVAGAW the amyloid nucleation score was 7.745 ± 0.045. In the case of QCMARVSQFFWFMLTWK, the amyloid nucleation score is reported as 0.748 ± 0.27. With QCMSMSYPFMPRTHQRTVLK the amyloid nucleation score was -0.179 ± 0.31. For QCVGPSVCVFVHRLVGCYRA, the amyloid nucleation score was 3.34 ± 0.098. In the case of QDTRTLQGCRQWQRWITAEG, the amyloid nucleation score is reported as 0.678 ± 0.84. QFFLNTRLSLFALYL gave an amyloid nucleation score of 5.35 ± 0.059. QFSCFMMFIIYE gave an amyloid nucleation score of 4.16 ± 0.064. With QFTRLCMLRNTLFTVVENQA the amyloid nucleation score was 0.383 ± 0.65. Substance QFVMINYSSSNVASPNLLRI has an amyloid nucleation score of 0.94 ± 0.3. With QFVQAGRKLGNNVDGWKYVC the amyloid nucleation score was -0.997 ± 0.5. For QFYKGRNSFNERSSSNVLRY, the amyloid nucleation score was “inactive”. Work on QGAGILTYPRALRHWVVRRM yielded an amyloid nucleation score of 0.12 ± 0.51. QGCMATYSGVGDACWGVRVS gave an amyloid nucleation score of 0.678 ± 0.56. Work on QGFRVWKLNTIKRHSWMGFA yielded an amyloid nucleation score of 0.772 ± 0.44. For QGPVGVSYILHDFIIML, the amyloid nucleation score was 5.94 ± 0.093. With QGSDASVGTAVGSTWEVCCC the amyloid nucleation score was -0.334 ± 0.36. For QHCARTAGVSVARVVVSNCG, the amyloid nucleation score was 0.161 ± 0.41. In the case of QHTFQAMISKSNVSEMSPGT, the amyloid nucleation score is reported as -0.174 ± 0.59. QHVFWIYPLPTLSSYGTARS gave an amyloid nucleation score of -0.227 ± 1.9. For QISSTRIDW, the amyloid nucleation score was -0.074 ± 0.32. QKMYDILVIDLYESGDRPFV gave an amyloid nucleation score of 0.532 ± 0.29. Substance QKSLSVEPDAH has an amyloid nucleation score of -0.557 ± 0.37. Work on QLLSRLGIS yielded an amyloid nucleation score of -0.641 ± 1.4. In the case of QLPAFGINMSRLSNSCSYGC, the amyloid nucleation score is reported as 0.095 ± 0.59. With QLTSACWYAVTGGGSTAGEG the amyloid nucleation score was -0.965 ± 1.4. QLVKSVY gave an amyloid nucleation score of -0.166 ± 0.35. With QMGIMFALILQMYFSKFQDW the amyloid nucleation score was -0.182 ± 0.21. In the case of QMKVISLVRHE, the amyloid nucleation score is reported as “inactive”. QNIGGFMARFIIFILLYDHW showed an amyloid nucleation score of 0.714 ± 0.84. With QNIYFFKCAKHSKVNRSDMS the amyloid nucleation score was 1.91 ± 0.55. For QNSENMFDINVLTWGCHMAM, the amyloid nucleation score was “inactive”. Work on QPFTWVLQKNTRT yielded an amyloid nucleation score of 0.714 ± 0.58. With QPSKCGAWGPLFIAGVGLTQ the amyloid nucleation score was 0.231 ± 0.33. Work on QRFQAGPCRFSE yielded an amyloid nucleation score of -0.394 ± 0.95. QRFRTLCNLVFYLGSKVRET showed an amyloid nucleation score of 0.317 ± 0.3. QRHSLNDNCRCLRYPQHSPN gave an amyloid nucleation score of 1.07 ± 0.73. QRIVTG showed an amyloid nucleation score of -0.123 ± 0.59. For QRRYRDTAGLNRNIRNICSK, the amyloid nucleation score was -0.257 ± 0.72. With QSAAFIIDLLTVFRKMEEVM the amyloid nucleation score was -0.666 ± 0.66. Work on QSETDQIFEVFFSDWHSCTK yielded an amyloid nucleation score of 0.777 ± 0.97. With QSWHEWDM the amyloid nucleation score was “inactive”. With QTCAYGLRNTTSTVCLYRWG the amyloid nucleation score was 0.294 ± 0.53. For QTFSNPFFVLYLSNRLIPKV, the amyloid nucleation score was 1.82 ± 0.29. With QTNKLEGVANSGKIITNKSG the amyloid nucleation score was 0.021 ± 0.97. For QTSIWFGDYYRKLSLCWHRP, the amyloid nucleation score was 3.63 ± 0.097. Substance QTTTLYRFCCEWQSPASVVM has an amyloid nucleation score of 0.333 ± 0.97. Work on QVFKHGSPGHMLALCQRAV yielded an amyloid nucleation score of 1.39 ± 0.63. For QVRGSASYSVHWINELFFKQ, the amyloid nucleation score was 1.64 ± 0.32. With QVSANSKNKSVVLFQIKSNE the amyloid nucleation score was -0.17 ± 0.4. For QVTRYYGGNAVR, the amyloid nucleation score was 1.59 ± 0.57. With QVWWDVNEPPDLTPQGSRWG the amyloid nucleation score was “inactive”. QVYLILTEMRMTF showed an amyloid nucleation score of 1.4 ± 0.13. QWGRMPMFLIDRTGGWASMG gave an amyloid nucleation score of 0.409 ± 0.32. For QWRFKVRVHVEVSSSGVCSI, the amyloid nucleation score was “inactive”. QYSRLESLLM gave an amyloid nucleation score of 0.483 ± 0.39. RAAKF showed an amyloid nucleation score of -1.15 ± 0.58. Substance RACGYYCKSLCPGCKTCLSR has an amyloid nucleation score of 0.005 ± 1.7. With RAGQVRNNDTSVEFAMCGRW the amyloid nucleation score was 0.355 ± 0.38. In the case of RAIIGFSLSQRGYLPNTDLR, the amyloid nucleation score is reported as 3.1 ± 0.095. Work on RARLNRFVICVSLDMLVLWM yielded an amyloid nucleation score of -0.709 ± 0.45. For RARWDPFLMCYLTVVWTSFV, the amyloid nucleation score was -0.12 ± 0.29. Substance RASDRSSIMICF has an amyloid nucleation score of 0.382 ± 1.4. Work on RATQLF yielded an amyloid nucleation score of 1.81 ± 0.67. For RAVRVMRLSSGLSLGRPSDW, the amyloid nucleation score was “inactive”. In the case of RCGFSLNFC, the amyloid nucleation score is reported as 3.2 ± 0.097. In the case of RCGLWV, the amyloid nucleation score is reported as -0.217 ± 0.78. In the case of RCGSPSAHNSIYMR, the amyloid nucleation score is reported as 1.34 ± 0.32. Substance RCKFESVKRVS has an amyloid nucleation score of 1.42 ± 0.54. RCLVFTLKRV gave an amyloid nucleation score of 0.358 ± 0.61. For RCMMPYGESKSGVLMGRYSY, the amyloid nucleation score was 0.393 ± 0.31. With RCTGLRLRVLGAILIFIHYV the amyloid nucleation score was “inactive”. For RCYFAWPEWLGYGCVVMERG, the amyloid nucleation score was -0.435 ± 0.52. In the case of RCYKSLVGMNTHKSAAVVER, the amyloid nucleation score is reported as 0.011 ± 0.27.
